Data from the supplement of paper PMC11246515.
± gives the standard deviation of the averaged measurements.

Assay: total protein half-life in vivo (active degradation + dilution); higher = more stable protein
[1] = E. coli NCM3722 delta-clpP delta-lon delta-hslV, growth: N-lim chemostat, doubling time 6 h
[2] = E. coli NCM3722 delta-lon, growth: N-lim chemostat, doubling time 6 h
[3] = E. coli NCM3722 delta-smpB, growth: N-lim chemostat, doubling time 6 h
[4] = wild type E. coli NCM3722, growth: C-lim chemostat, doubling time 12 h
[5] = wild type E. coli NCM3722, growth: N-lim chemostat, doubling time 12 h
[6] = E. coli NCM3722 delta-hslV, growth: N-lim chemostat, doubling time 6 h
[7] = wild type E. coli NCM3722, growth: C-lim chemostat, doubling time 3 h
[8] = wild type E. coli NCM3722, growth: C-lim chemostat, doubling time 6 h
[9] = wild type E. coli NCM3722, growth: N-lim chemostat, doubling time 6 h
[10] = wild type E. coli NCM3722, growth: P-lim chemostat, doubling time 6 h
[11] = wild type E. coli NCM3722, growth: P-lim chemostat, doubling time 12 h
[12] = E. coli NCM3722 delta-clpP, growth: N-lim chemostat, doubling time 6 h

| Sequence | total protein half-life in vivo [1] [h] | total protein half-life in vivo [2] [h] | total protein half-life in vivo [3] [h] | total protein half-life in vivo [4] [h] | total protein half-life in vivo [5] [h] | total protein half-life in vivo [6] [h] | total protein half-life in vivo [7] [h] | total protein half-life in vivo [8] [h] | total protein half-life in vivo [9] [h] | total protein half-life in vivo [10] [h] | total protein half-life in vivo [11] [h] | total protein half-life in vivo [12] [h] |
| --- | --- | --- | --- | --- | --- | --- | --- | --- | --- | --- | --- | --- |
| MKKRHLLSLLALGISTACYGETYPAPIGPSQSDFGGVGLLQTPTARMAREGELSLNYRDNDQYRYYSASVQLFPWLETTLRYTDVRTRQYSSVEAFSGDQTYKDKAFDLKLRLWEESYWLPQVAVGARDIGGTGLFDAEYLVASKAWGPFDFTLGLGWGYLGTSGNVKNPLCSASDKYCYRDNSYKQAGSIDGSQMFHGPASLFGGVEYQTPWQPLRLKLEYEGNNYQQDFAGKLEQKSKFNVGAIYRVTDWADVNLSYERGNTFMFGVTLRTNFNDLRPSYNDNARPQYQPQPQDAILQHSVVANQLTLLKYNAGLADPQIQAKGDTLYVTGEQVKYRDSREGIIRANRIVMNDLPDGIKTIRITENRLNMPQVTTETDVASLKNHLAGEPLGHETTLAQKRVEPVVPQSTEQGWYIDKSRFDFHIDPVLNQSVGGPENFYMYQLGVMGTADLWLTDHLLTTGSLFANLANNYDKFNYTNPPQDSHLPRVRTHVREYVQNDVYVNNLQANYFQHLGNGFYGQVYGGYLETMFGGAGAEVLYRPLDSNWAFGLDANYVKQRDWRSAKDMMKFTDYSVKTGHLTAYWTPSFAQDVLVKASVGQYLAGDKGGTLEIAKRFDSGVVVGGYATITNVSKEEYGEGDFTKGVYVSVPLDLFSSGPTRSRAAIGWTPLTRDGGQQLGRKFQLYDMTSDRSVNFR | 5.44 | 6.75 ± 0.42 | 5.88 ± 0.37 | 12.6 | 11.6 |  |  |  |  |  |  |  |
| MKKSILALSLLVGLSTAASSYAALPETVRIGTDTTYAPFSSKDAKGDFVGFDIDLGNEMCKRMQVKCTWVASDFDALIPSLKAKKIDAIISSLSITDKRQQEIAFSDKLYAADSRLIAAKGSPIQPTLDSLKGKHVGVLQGSTQEAYANETWRSKGVDVVAYANQDLVYSDLAAGRLDAALQDEVAASEGFLKQPAGKDFAFAGSSVKDKKYFGDGTGVGLRKDDAELTAAFNKALGELRQDGTYDKMAKKYFDFNVYGD | 6.69 ± 0.15 | 6.79 ± 0.077 | 5.31 ± 0.11 | 11.58 ± 0.11 | 8.71 ± 0.59 | 6.37 ± 0.68 | 3.22 ± 0.3 | 6.33 ± 0.92 | 5.27 ± 0.47 | 5.98 ± 0.25 | 11.4 ± 1.6 |  |
| MKKSITTLDLNLLLCLQLLMQERSVTKAAKRINVTPSAVSKSLAKLRAWFDDPLFVNSPLGLSPTPLMVSMEQNLAEWMQMSNLLLDKPHHQTPRGLKFELAAESPLMMIMLNALSKQIYQRYPQATIKLRNWDYDSLDAITRGEVDIGFSGRESHPRSRELLSSLPLAIDYEVLFSDVPCVWLRKDHPALHQTWNLDTFLRYPHISICWEQSDTWALDNVLQELGRERTIAMSLPEFEQSLFMAAQPDNLLLATAPRYCQYYNQLHQLPLVALPLPFDESQQKKLEVPFTLLWHKRNSHNPKIVWLRETIKNLYASMA | 5.87 ± 0.7 | 6.37 ± 0.5 | 4.519 ± 0.029 |  | 12.2 | 5.91 ± 0.94 |  |  | 4.74 |  | 11.2 ± 0.6 | 5.16 ± 1 |
| MKKSLLGLTFASLMFSAGSAVAADYKIDKEGQHAFVNFRIQHLGYSWLYGTFKDFDGTFTFDEKNPAADKVNVTINTTSVDTNHAERDKHLRSADFLNTAKYPQATFTSTSVKKDGDELDITGDLTLNGVTKPVTLEAKLIGQGDDPWGGKRAGFEAEGKIKLKDFNIKTDLGPASQEVDLIISVEGVQQK [P0A8X2] | 5.61 ± 0.24 | 6.59 ± 0.48 | 6.61 ± 1.1 | 10.6 ± 4 | 10.9 ± 2.2 | 6.38 ± 0.11 | 3.22 ± 0.24 |  | 6.19 ± 0.62 | 6.05 ± 0.28 | 14 ± 1.4 | 6.32 ± 0.21 |
| MKKTQRKEIENVTNITGVRQIELWRRDDLQHPRLDEVAEEVPVALVYNGISHVVMMASPKDLEYFALGFSLSEGIIESPRDIFGMDVVPSCNGLEVQIELSSRRFMGLKERRRALAGRTGCGVCGVEQLNDIGKPVQPLPFTQTFDLNKLDDALRHLNDFQPVGQLTGCTHAAAWMLPSGELVGGHEDVGRHVALDKLLGRRSQEGESWQQGAVLVSSRASYEMVQKSAMCGVEILFAVSAATTLAVEVAERCNLTLVGFCKPGRATVYTHPQRLSN | 5.53 ± 0.71 | 4.1 ± 0.3 | 3.793 ± 0.019 | 9.01 ± 0.31 | 6.61 ± 0.14 | 3.83 ± 0.57 | 2.89 ± 0.25 | 4.79 ± 0.16 | 3.88 ± 0.38 | 4.99 ± 0.11 | 10.5 ± 0.64 | > 8 |
| MKKTRTANLHHLYHEPLPENLKLTPKVEVDNVHQRQTTDVYEHALTITAWQQIYDQLHPGKFHGEFTEILLDDIQVFREYTGLALRQSCLVWPNSFWFGIPATRGEQGFIGSQCLGSAEIATRPGGTEFELSTPDDYTILGVVLSEDVITRQANFLHNPDRVLHMLRNQSALEVKEQHKAALWGFVQQALATFCENPENLHQPAVRKVLGDNLLMAMGAMLEEAQPMVTAESISHQSYRRLLSRAREYVLENMSEPVTVLDLCNQLHVSRRTLQNAFHAILGIGPNAWLKRIRLNAVRRELISPWSQSMTVKDAAMQWGFWHLGQFATDYQQLFSEKPSLTLHQRMREWG | 5.53 ± 0.77 |  |  |  | 2.75 |  |  | 1.42 |  | 1.29 |  |  |
| MKKVAAFVALSLLMAGCVSNDKIAVTPEQLQHHRFVLESVNGKPVTSDKNPPEISFGEKMMISGSMCNRFSGEGKLSNGELTAKGLAMTRMMCANPQLNELDNTISEMLKEGAQVDLTANQLTLATAKQTLTYKLADLMN | 6.45 ± 1.1 |  | 6.01 ± 0.55 | 11 ± 0.29 | 11.5 ± 1.1 | 6.52 ± 1.3 | 2.95 ± 0.68 | 5.47 ± 1.1 | 6.111 ± 0.014 | 6 ± 0.54 | 12.9 ± 0.28 | 6.13 ± 0.01 |
| MKKVWLNRYPADVPTEINPDRYQSLVDMFEQSVARYADQPAFVNMGEVMTFRKLEERSRAFAAYLQQGLGLKKGDRVALMMPNLLQYPVALFGILRAGMIVVNVNPLYTPRELEHQLNDSGASAIVIVSNFAHTLEKVVDKTAVQHVILTRMGDQLSTAKGTVVNFVVKYIKRLVPKYHLPDAISFRSALHNGYRMQYVKPELVPEDLAFLQYTGGTTGVAKGAMLTHRNMLANLEQVNATYGPLLHPGKELVVTALPLYHIFALTINCLLFIELGGQNLLITNPRDIPGLVKELAKYPFTAITGVNTLFNALLNNKEFQQLDFSSLHLSAGGGMPVQQVVAERWVKLTGQYLLEGYGLTECAPLVSVNPYDIDYHSGSIGLPVPSTEAKLVDDDDNEVPPGQPGELCVKGPQVMLGYWQRPDATDEIIKNGWLHTGDIAVMDEEGFLRIVDRKKDMILVSGFNVYPNEIEDVVMQHPGVQEVAAVGVPSGSSGEAVKIFVVKKDPSLTEESLVTFCRRQLTGYKVPKLVEFRDELPKSNVGKILRRELRDEARGKVDNKA |  | 5.34 ± 0.82 | 4.279 ± 0.022 | 6.59 ± 0.46 | 10.9 ± 1.6 | 5.05 ± 0.23 | 1.68 ± 0.16 | 3.98 ± 0.57 | 4.879 ± 0.022 | 4.93 ± 0.11 | 10.8 ± 1.1 | 5.82 ± 0.16 |
| MKKWLLAAGLGLALATSAQAADKIAIVNMGSLFQQVAQKTGVSNTLENEFKGRASELQRMETDLQAKMKKLQSMKAGSDRTKLEKDVMAQRQTFAQKAQAFEQDRARRSNEERGKLVTRIQTAVKSVANSQDIDLVVDANAVAYNSSDVKDITADVLKQVK [P0AEU7] | 7.77 ± 0.22 | 6.66 ± 0.53 | 6.63 ± 0.26 | 10.3 ± 0.22 | 13.4 ± 1.8 | 6.97 ± 1 | 3.15 ± 0.35 | 6 ± 0.15 | 5.62 ± 0.57 | 6.79 ± 1 | 13.7 ± 0.66 |  |
| MKLAHLGRQALMGVMAVALVAGMSVKSFADEGLLNKVKERGTLLVGLEGTYPPFSFQGDDGKLTGFEVEFAQQLAKHLGVEASLKPTKWDGMLASLDSKRIDVVINQVTISDERKKKYDFSTPYTISGIQALVKKGNEGTIKTADDLKGKKVGVGLGTNYEEWLRQNVQGVDVRTYDDDPTKYQDLRVGRIDAILVDRLAALDLVKKTNDTLAVTGEAFSRQESGVALRKGNEDLLKAVNDAIAEMQKDGTLQALSEKWFGADVTK [P0AEM9] | 6.22 ± 0.52 | 7.33 ± 0.21 | 6.54 ± 0.16 | 12.5 ± 2.1 | 14.1 ± 1.8 | 6.87 ± 0.34 | 3.47 ± 0.28 | 6.27 ± 0.63 | 5.71 ± 0.61 | 5.95 ± 0.58 | 14.49 ± 0.065 | 5.74 ± 0.64 |
| MKLIITEDYQEMSRVAAHHLLGYMSKTRRVNLAITAGSTPKGMYEYLTTLVKGKPWYDNCYFYNFDEIPFRGKEGEGVTITNLRNLFFTPAGIKEENIQKLTIDNYREHDQKLAREGGLDLVVLGLGADGHFCGNLPNTTHFHEQTVEFPIQGEMVDIVAHGELGGDFSLVPDSYVTMGPKSIMAAKNLLIIVSGAGKAQALKNVLQGPVTEDVPASVLQLHPSLMVIADKAAAAELALG | 5.36 ± 0.6 |  |  |  |  |  | 2.47 | 3.24 | 2.68 |  |  |  |
| MKLKTTLFGNVYQFKDVKEVLAKANELRSGDVLAGVAAASSQERVAAKQVLSEMTVADIRNNPVIAYEDDCVTRLIQDDVNETAYNQIKNWSISELREYVLSDETSVDDIAFTRKGLTSEVVAAVAKICSNADLIYGAKKMPVIKKANTTIGIPGTFSARLQPNDTRDDVQSIAAQIYEGLSFGVGDAVIGVNPVTDDVENLSRVLDTIYGVIDKFNIPTQGCVLAHVTTQIEAIRRGAPGGLIFQSICGSEKGLKEFGVELAMLDEARAVGAEFNRIAGENCLYFETGQGSALSAGANFGADQVTMEARNYGLARHYDPFIVNTVVGFIGPEYLYNDRQIIRAGLEDHFMGKLSGISMGCDCCYTNHADADQNLNENLMILLATAGCNYIMGMPLGDDIMLNYQTTAFHDTATVRQLLNLRPSPEFERWLESMGIMANGRLTKRAGDPSLFF [P0AEJ6] | 5.95 ± 1.3 | 4.68 ± 0.12 | 3.91 ± 0.24 | 11.1 ± 0.83 | 6.18 ± 0.099 | 4.07 ± 0.41 | 3.36 ± 0.3 | 6.26 ± 0.2 | 3.82 ± 0.15 | 6.37 ± 0.16 | 12 ± 0.84 | 5.45 ± 0.56 |
